Assay results taken from article PMC7202667, “UNBRANCHED3 Expression and Inflorescence Development is Mediated by UNBRANCHED2 and the Distal Enhancer, KRN4, in Maize”.

Experiments:
OBF4, MBP fusion = biological target: T1, OBF4, MBP fusion (Zea mays, UniProt B4FFB3 1-396); assay: EMSA; poly(dI-dC), 5 mM MgCl2; EMSA: 10 mM Tris pH 7.5, 50 mM KCl, 1 mM DTT, 5 mM MgCl2, 2.5% glycerol, poly(dI-dC), 0.05% NP-40; 20-40 ng protein, probe 10 fM (so in the source); room temperature; conditions: protein: recombinant; tags: N-MBP (pMAL-c2x); chain copies: 2; label: 5'-biotin; blunt
T1 sequence: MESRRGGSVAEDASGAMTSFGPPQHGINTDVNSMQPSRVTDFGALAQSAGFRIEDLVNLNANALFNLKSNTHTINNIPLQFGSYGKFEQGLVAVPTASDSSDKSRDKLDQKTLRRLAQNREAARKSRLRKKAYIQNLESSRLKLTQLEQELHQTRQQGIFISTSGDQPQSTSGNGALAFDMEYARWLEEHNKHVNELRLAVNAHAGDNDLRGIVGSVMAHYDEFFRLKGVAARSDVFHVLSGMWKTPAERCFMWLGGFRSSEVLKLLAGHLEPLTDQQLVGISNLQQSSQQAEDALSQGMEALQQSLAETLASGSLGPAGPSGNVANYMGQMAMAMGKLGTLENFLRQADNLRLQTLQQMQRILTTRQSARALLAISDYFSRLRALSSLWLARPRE

OBF1, MBP fusion = biological target: T2, OBF1, MBP fusion (Zea mays, UniProt P24068 1-151); assay: as above; conditions: protein: recombinant; tags: N-MBP (pMAL-c2x); chain copies: 2; label: 5'-biotin; blunt
T2 sequence: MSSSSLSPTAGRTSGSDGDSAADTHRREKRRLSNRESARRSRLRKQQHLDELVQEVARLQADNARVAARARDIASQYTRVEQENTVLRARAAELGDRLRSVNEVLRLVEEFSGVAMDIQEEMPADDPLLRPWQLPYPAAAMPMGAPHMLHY

B1: 3xE1 probe (3E1X) (dsDNA)
DNA 1: ACATGGCACGACACGTAGTGAACCACATGGCACGACACGTAGTGAACCACATGGCACGACACGTAGTGAACC
DNA 2: GGTTCACTACGTGTCGTGCCATGTGGTTCACTACGTGTCGTGCCATGTGGTTCACTACGTGTCGTGCCATGT
- binding result (OBF4, MBP fusion): binds
- binding result (OBF1, MBP fusion): binds
